Assay results: article PMC11021511 (Nature Communications, 2024)

Experiments:
Assay in all cases: affinity purification with mass spectrometry; ESK1 antibody cross-linked to Protein A/G beads as bait; lysate of primary human liver tissue (0.5% IGEPAL 630, 50 mM Tris pH 8.0, 150 mM NaCl), at least 5 h at 4 °C; washes with 150 mM NaCl, 450 mM NaCl and no salt; peptides eluted with 10% acetic acid, 5 kDa filter, LC-MS2; enrichment against the MAGE-A4 antibody as control; triplicates
Settings in all cases: one partner purified
[1] = target: T1, HLA-A*02:01 in complex with peptide USP9Y_(1674-1682) (…) (Homo sapiens, HLA-A*02:01)
T1 construct: HLA class I heavy chain, allele HLA-A*02:01, human; beta-2-microglobulin, human; The presenting allele is assigned by NetMHCpan 4.1 prediction (rank <= 2); source: peptide pulsed on T2 cells (JNFAT assay); copies: + +

[2] = target: T2, HLA-A*02:01 in complex with peptide MAF_(116-124) (…) (Homo sapiens, HLA-A*02:01)
T2 construct: HLA class I heavy chain, allele HLA-A*02:01, human; beta-2-microglobulin, human; The presenting allele is assigned by NetMHCpan 4.1 prediction (rank <= 2); source: peptide pulsed on T2 cells (JNFAT assay); copies: + +

[3] = target: T3, HLA-A*02:01 in complex with peptide RL5_(117-125) (…) (Homo sapiens, HLA-A*02:01)
T3 construct: HLA class I heavy chain, allele HLA-A*02:01, human; beta-2-microglobulin, human; The presenting allele is assigned by NetMHCpan 4.1 prediction (rank <= 2); source: peptide pulsed on T2 cells (JNFAT assay); copies: + +

[4] = target: T4, HLA-A*02:01 in complex with peptide SET_(150-158) (…) (Homo sapiens, HLA-A*02:01)
T4 construct: HLA class I heavy chain, allele HLA-A*02:01, human; beta-2-microglobulin, human; The presenting allele is assigned by NetMHCpan 4.1 prediction (rank <= 2); source: peptide pulsed on T2 cells (JNFAT assay); copies: + +

[5] = target: T5, HLA-A*02:01 in complex with peptide ILF2_(127-135) (…) (Homo sapiens, HLA-A*02:01)
T5 construct: HLA class I heavy chain, allele HLA-A*02:01, human; beta-2-microglobulin, human; The presenting allele is assigned by NetMHCpan 4.1 prediction (rank <= 2); source: peptide pulsed on T2 cells (JNFAT assay); copies: + +

[6] = target: T6, HLA-A*02:01 in complex with peptide HNRNPA1_(15-23) (…) (Homo sapiens, HLA-A*02:01)
T6 construct: HLA class I heavy chain, allele HLA-A*02:01, human; beta-2-microglobulin, human; Heterogeneous nuclear ribonucleoprotein A1, human, residues 15-23; The presenting allele is assigned by NetMHCpan 4.1 prediction (rank <= 2; printed rank 1.625); source: peptide pulsed on T2 cells (JNFAT assay); copies: + +

[7] = target: T7, HLA-A*02:01 in complex with peptide ARHGEF26_(863-871) (…) (Homo sapiens, HLA-A*02:01)
T7 construct: HLA class I heavy chain, allele HLA-A*02:01, human; beta-2-microglobulin, human; The presenting allele is assigned by NetMHCpan 4.1 prediction (rank <= 2); source: peptide pulsed on T2 cells (JNFAT assay); copies: + +

[8] = target: T8, HLA-A*02:01 in complex with peptide PLG_(92-100) (…) (Homo sapiens, HLA-A*02:01)
T8 construct: HLA class I heavy chain, allele HLA-A*02:01, human; beta-2-microglobulin, human; Plasminogen, human, residues 92-100; The presenting allele is assigned by NetMHCpan 4.1 prediction (rank <= 2); source: peptide pulsed on T2 cells (JNFAT assay); copies: + +

[9] = target: T9, HLA-A*02:01 in complex with peptide SHC1_(469-477) (…) (Homo sapiens, HLA-A*02:01)
T9 construct: HLA class I heavy chain, allele HLA-A*02:01, human; beta-2-microglobulin, human; The presenting allele is assigned by NetMHCpan 4.1 prediction (rank <= 2); source: peptide pulsed on T2 cells (JNFAT assay); copies: + +

[10] = target: T10, HLA-A*02:01 in complex with peptide SF3B4_(78-86) (…) (Homo sapiens, HLA-A*02:01)
T10 construct: HLA class I heavy chain, allele HLA-A*02:01, human; beta-2-microglobulin, human; Splicing factor 3B subunit 4, human, residues 78-86; The presenting allele is assigned by NetMHCpan 4.1 prediction (rank <= 2); source: peptide pulsed on T2 cells (JNFAT assay); copies: + +

[11] = target: T11, HLA-A*02:01 in complex with peptide RBM4B_(59-67) (…) (Homo sapiens, HLA-A*02:01)
T11 construct: HLA class I heavy chain, allele HLA-A*02:01, human; beta-2-microglobulin, human; The presenting allele is assigned by NetMHCpan 4.1 prediction (rank <= 2); also called RMB4B_(59-67); source: peptide pulsed on T2 cells (JNFAT assay); copies: + +

[12] = target: T12, HLA-A*02:01 in complex with peptide MSMO1_(164-172) (…) (Homo sapiens, HLA-A*02:01)
T12 construct: HLA class I heavy chain, allele HLA-A*02:01, human; beta-2-microglobulin, human; The presenting allele is assigned by NetMHCpan 4.1 prediction (rank <= 2); source: peptide pulsed on T2 cells (JNFAT assay); copies: + +

[13] = target: T13, HLA-A*02:01 in complex with peptide CRYL1_(130-138) (…) (Homo sapiens, HLA-A*02:01)
T13 construct: HLA class I heavy chain, allele HLA-A*02:01, human; beta-2-microglobulin, human; The presenting allele is assigned by NetMHCpan 4.1 prediction (rank <= 2); source: peptide pulsed on T2 cells (JNFAT assay); copies: + +

[14] = target: T14, HLA-A*02:01 in complex with peptide CYP2C8_(59-67) (…) (Homo sapiens, HLA-A*02:01)
T14 construct: HLA class I heavy chain, allele HLA-A*02:01, human; beta-2-microglobulin, human; Cytochrome P450 2C8, human, residues 59-67; The presenting allele is assigned by NetMHCpan 4.1 prediction (rank <= 2); source: peptide pulsed on T2 cells (JNFAT assay); copies: + +

[15] = target: T15, HLA-A*02:01 in complex with peptide ALDOA_(216-224) (…) (Homo sapiens, HLA-A*02:01)
T15 construct: HLA class I heavy chain, allele HLA-A*02:01, human; beta-2-microglobulin, human; The presenting allele is assigned by NetMHCpan 4.1 prediction (rank <= 2); source: peptide pulsed on T2 cells (JNFAT assay); copies: + +

binding result [1]: binds | binding result [2]: binds | binding result [3]: binds | binding result [4]: binds | binding result [5]: binds | binding result [6]: binds | binding result [7]: binds | binding result [8]: binds | binding result [9]: binds | binding result [10]: binds | binding result [11]: binds | binding result [12]: binds | binding result [13]: binds | binding result [14]: binds | binding result [15]: binds
B1: ESK1 antibody (antibody, V domains shown)
VH: QMQLVQSGAEVKEPGESLRISCKGSGYSFTNFWISWVRQMPGKGLEWMGRVDPGYSYSTYSPSFQGHVTISADKSTSTAYLQWNSLKASDTAMYYCARVQYSGYYDWFDPWGQGTLVTVSS
VL: not shown
notes: the constant region of the bait antibody is not described for ESK1
